The target of the series is T1, Bovine, dephosphorylated, Myelin Basic Protein (MBP), P02687.
T1 chain: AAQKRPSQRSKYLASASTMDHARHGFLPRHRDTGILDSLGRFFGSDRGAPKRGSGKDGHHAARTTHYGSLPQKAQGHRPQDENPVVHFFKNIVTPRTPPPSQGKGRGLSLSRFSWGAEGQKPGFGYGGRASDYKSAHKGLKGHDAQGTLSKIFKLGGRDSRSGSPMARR

This note sets out measurements from patent publication US20090099029.

B1: MAPK13(p38delta) (protein)
chain: MSLIRKKGFYKQDVNKTAWELPKTYVSPTHVGSGAYGSVCSAIDKRSGEKVAIKKLSRPFQSEIFAKRAYRELLLLKHMQHENVIGLLDVFTPASSLRNFYDFYLVMPFMQTDLQKIMGMEFSEEKIQYLVYQMLKGLKYIHSAGVVHRDLKPGNLAVNEDCELKILDFGLARHADAEMTGYVVTRWYRAPEVILSWMHYNQTVDIWSVGCIMAEMLTGKTLFKGKDYLDQLTQILKVTGVPGTEFVQKLNDKAAKSYIQSLPQTPRKDFTQLFPRASPQAADLLEKMLELDVDKRLTAAQALTHPFFEPFRDPEEETEAQQPFDDSLEHEKLTVDEWKQHIYKEIVNFSPIARKDSRRRSGMKL
B1: the “MBP Kinase Activity” value is on record as “Weak”.

B2: NEK3 (protein)
chain: MDDYMVLRMIGEGSFGRALLVQHESSNQMFAMKEIRLPKSFSNTQNSRKEAVLLAKMKHPNIVAFKESFEAEGHLYIVMEYCDGGDLMQKIKQQKGKLFPEDMILNWFTQMCLGVNHIHKKRVLHRDIKSKNIFLTQNGKVKLGDFGSARLLSNPMAFACTYVGTPYYVPPEIWENLPYNNKSDIWSLGCILYELCTLKHPFQANSWKNLILKVCQGCISPLPSHYSYELQFLVKQMFKRNPSHRPSATTLLSRGIVARLVQKCLPPEIIMEYGEEVLEEIKNSKHNTPRKKTNPSRIRIALGNEASTVQEEEQDRKGSHTDLESINENLVESALRRVNREEKGNKSVHLRKASSPNLHRRQWEKNVPNTALTALENASILTSSLTAEDDRGGSVIKYSKNTTRKQWLKETPDTLLNILKNADLSLAFQTYTIYRPGSEGFLKGPLSEETEASDSVDGGHDSVILDPERLEPGLDEEDTDFEEEDDNPDWVSELKKRAGWQGLCDR
On to B2, for which the “MBP Kinase Activity” value is “Negative”.

B3: MYLK2 (protein)
chain: MATENGAVELGIQNPSTDKAPKGPTGERPLAAGKDPGPPDPKKAPDPPTLKKDAKAPASEKGDGTLAQPSTSSQGPKGEGDRGGGPAEGSAGPPAALPQQTATPETSVKKPKAEQGASGSQDPGKPRVGKKAAEGQAAARRGSPAFLHSPSCPAIISSSEKLLAKKPPSEASELTFEGVPMTHSPTDPRPAKAEEGKNILAESQKEVGEKTPGQAGQAKMQGDTSRGIEFQAVPSEKSEVGQALCLTAREEDCFQILDDCPPPPAPFPHRMVELRTGNVSSEFSMNSKEALGGGKFGAVCTCMEKATGLKLAAKVIKKQTPKDKEMVLLEIEVMNQLNHRNLIQLYAAIETPHEIVLFMEYIEGGELFERIVDEDYHLTEVDTMVFVRQICDGILFMHKMRVLHLDLKPENILCVNTTGHLVKIIDFGLARRYNPNEKLKVNFGTPEFLSPEVVNYDQISDKTDMWSMGVITYMLLSGLSPFLGDDDTETLNNVLSGNWYFDEETFEAVSDEAKDFVSNLIVKDQRARMNAAQCLAHPWLNNLAEKAKRCNRRLKSQILLKKYLMKRRWKKNFIAVSAANRFKKISSSGALMALGV
Take B3: the “MBP Kinase Activity” value is listed as “Negative”.

B4: MAPKAPK3 (protein)
chain: MDGETAEEQGGPVPPPVAPGGPGLGGAPGGRREPKKYAVTDDYQLSKQVLGLGVNGKVLECFHRRTGQKCALKLLYDSPKARQEVDHHWQASGGPHIVCILDVYENMHHGKRCLLIIMECMEGGELFSRIQERGDQAFTEREAAEIMRDIGTAIQFLHSHNIAHRDVKPENLLYTSKEKDAVLKLTDFGFAKETTQNALQTPCYTPYYVAPEVLGPEKYDKSCDMWSLGVIMYILLCGFPPFYSNTGQAISPGMKRRIRLGQYGFPNPEWSEVSEDAKQLIRLLLKTDPTERLTITQFMNHPWINQSMVVPQTPLHTARVLQEDKDHWDEVKEEMTSALATMRVDYDQVKIKDLKTSNNRLLNKRRKKQAGSSSASQGCNNQ
Take B4: the “MBP Kinase Activity” value is given as “Strong”.

B5: NEK2 (protein)
chain: MPSRAEDYEVLYTIGTGSYGRCQKIRRKSDGKILVWKELDYGSMTEAEKQMLVSEVNLLRELKHPNIVRYYDRIIDRTNTTLYIVMEYCEGGDLASVITKGTKERQYLDEEFVLRVMTQLTLALKECHRRSDGGHTVLHRDLKPANVFLDGKQNVKLGDFGLARILNHDTSFAKTFVGTPYYMSPEQMNRMSYNEKSDIWSLGCLLYELCALMPPFTAFSQKELAGKIREGKFRRIPYRYSDELNEIITRMLNLKDYHRPSVEEILENPLIADLVADEQRRNLERRGRQLGEPEKSQDSSPVLSELKLKEIQLQERERALKAREERLEQKEQELCVRERLAEDKLARAENLLKNYSLLKERKFLSLASNPELLNLPSSVIKKKVHFSGESKENIMRSENSESQLTSKSKCKDLKKRLHAAQLRAQALSDIEKNYQLKSRQILGMR
On to B5, for which the “MBP Kinase Activity” value is on record as “Strong”.

B6: MINK1 (protein)
chain: MGDPAPARSLDDIDLSALRDPAGIFELVEVVGNGTYGQVYKGRHVKTGQLAAIKVMDVTEDEEEEIKQEINMLKKYSHHRNIATYYGAFIKKSPPGNDDQLWLVMEFCGAGSVTDLVKNTKGNALKEDCIAYICREILRGLAHLHAHKVIHRDIKGQNVLLTENAEVKLVDFGVSAQLDRTVGRRNTFIGTPYWMAPEVIACDENPDATYDYRSDIWSLGITAIEMAEGAPPLCDMHPMRALFLIPRNPPPRLKSKKWSKKFIDFIDTCLIKTYLSRPPTEQLLKFPFIRDQPTERQVRIQLKDHIDRSRKKRGEKEETE
Turning to B6, the “MBP Kinase Activity” value is given as “Weak”.

B7: MAPK14(p38alpha) (protein)
chain: MSQERPTFYRQELNKTIWEVPERYQNLSPVGSGAYGSVCAAFDTKTGLRVAVKKLSRPFQSIIHAKRTYRELRLLKHMKHENVIGLLDVFTPARSLEEFNDVYLVTHLMGADLNNIVKCQKLTDDHVQFLIYQILRGLKYIHSADIIHRDLKPSNLAVNEDCELKILDFGLARHTDDEMTGYVATRWYRAPEIMLNWMHYNQTVDIWSVGCIMAELLTGRTLFPGTDHINQLQQIMRLTGTPPAYLINRMPSHEARNYIQSLTQMPKMNFANVFIGANPLAVDLLEKMLVLDSDKRITAAQALAHAYFAQYHDPDDEPVADPYDQSFESRDLLIDEWKSLTYDEVISFVPPPLDQEEMES
Consider B7, for which the “MBP Kinase Activity” value is “Strong”.

B8: EPHA8 (protein)
chain: KKRHCGYSKAFQDSDEEKMHYQNGQAPPPVFLPLHHPPGKLPEPQFYAEPHTYEEPGRAGRSFTREIEASRIHIEKIIGSGDSGEVCYGRLRVPGQRDVPVAIKALKAGYTERQRRDFLSEASIMGQFDHPNIIRLEGVVTRGRLAMIVTEYMENGSLDTFLRTHDGQFTIMQLVGMLRGVGAGMRYLSDLGYVHRDLAARNVLVDSNLVCKVSDFGLSRVLEDDPDAAYTTTGGKIPIRWTAPEAIAFRTFSSASDVWSFGVVMWEVLAYGERPYWNMTNRDVISSVEEGYRLPAPMGCPHALHQLMLDCWHKDRAQRPRFSQIVSVLDALIRSPESLRATATVSRCPPPAFVRSCFDLRGGSGGGGGLTVGDWLDSIRMGRYRDHFAAGGYSSLGMVLRMNAQDVRALGITLMGHQKKILGSIQTMRAQLTSTQGPRRHL
On to B8, for which the “MBP Kinase Activity” value is “Weak”.

B9: MAPK3(ERK1) (protein)
chain: MAAAAAQGGGGGEPRRTEGVGPGVPGEVEMVKGQPFDVGPRYTQLQYIGEGAYGMVSSAYDHVRKTRVAIKKISPFEHQTYCQRTLREIQILLRFRHENVIGIRDILRASTLEAMRDVYIVQDLMETDLYKLLKSQQLSNDHICYFLYQILRGLKYIHSANVLHRDLKPSNLLINTTCDLKICDFGLARIADPEHDHTGFLTEYVATRWYRAPEIMLNSKGYTKSIDIWSVGCILAEMLSNRPIFPGKHYLDQLNHILGILGSPSQEDLNCIINMKARNYLQSLPSKTKVAWAKLFPKSDSKALDLLDRMLTFNPNKRITVEEALAHPYLEQYYDPTDEPVAEEPFTFAMELDDLPKERLKELIFQETARFQPGVLEAP
Consider B9, for which the “MBP Kinase Activity” value was “Strong”.

B10: MAPK8(JNK1) (protein)
chain: MSRSKRDNNFYSVEIGDSTFTVLKRYQNLKPIGSGAQGIVCAAYDAILERNVAIKKLSRPFQNQTHAKRAYRELVLMKCVNHKNIIGLLNVFTPQKSLEEFQDVYIVMELMDANLCQVIQMELDHERMSYLLYQMLCGIKHLHSAGIIHRDLKPSNIVVKSDCTLKILDFGLARTAGTSFMMTPYVVTRYYRAPEVILGMGYKENVDLWSVGCIMGEMVCHKILFPGRDYIDQWNKVIEQLGTPCPEFMKKLQPTVRTYVENRPKYAGYSFEKLFPDVLFPADSEHNKLKASQARDLLSKMLVIDASKRISVDEALQHPYINVWYDPSEAEAPPPKIPDKQLDEREHTIEEWKELIYKEVMDLEERTKNGVIRGQPSPLAQVQQ
As for B10, the “MBP Kinase Activity” value is given as “Negative”.

B11: PAK1 (protein)
chain: MSNNGLDIQDKPPAPPMRNTSTMIGAGSKDAGTLNHGSKPLPPNPEEKKKKDRFYRSILPGDKTNKKKEKERPEISLPSDFEHTIHVGFDAVTGEFTGMPEQWARLLQTSNITKSEQKKNPQAVLDVLEFYNSKKTSNSQKYMSFTDKSAEDYNSSNALNVKAVSETPAVPPVSEDEDDDDDDATPPPVIAPRPEHTKSVYTRSVIEPLPVTPTRDVATSPISPTENNTTPPDALTRNTEKQKKKPKMSDEEILEKLRSIVSVGDPKKKYTRFEKIGQGASGTVYTAMDVATGQEVAIKQMNLQQQPKKELIINEILVMRENKNPNIVNYLDSYLVGDELWVVMEYLAGGSLTDVVTETCMDEGQIAAVCRECLQALEFLHSNQVIHRDIKSDNILLGMDGSVKLTDFGFCAQITPEQSKRSTMVGTPYWMAPEVVTRKAYGPKVDIWSLGIMAIEMIEGEPPYLNENPLRALYLIATNGTPELQNPEKLSAIFRDFLNRCLEMDVEKRGSAKELLQHQFLKIAKPLSSLTPLIAAAKEATKNNH
In the case of B11, the “MBP Kinase Activity” value is “Negative”.

B12: MAPKAPK5(PRAK) (protein)
chain: MSEESDMDKAIKETSILEEYSINWTQKLGAGISGPVRVCVKKSTQERFALKILLDRPKARNEVRLHMMCATHPNIVQIIEVFANSVQFPHESSPRARLLIVMEMMEGGELFHRISQHRHFTEKQASQVTKQIALALRHCHLLNIAHRDLKPENLLFKDNSLDAPVKLCDFGFAKIDQGDLMTPQFTPYYVAPQVLEAQRRHQKEKSGIIPTSPTPYTYNKSCDLWSLGVIIYVMLCGYPPFYSKHHSRTIPKDMRRKIMTGSFEFPEEEWSQISEMAKDVVRKLLKVKPEERLTIEGVLDHPWLNSTEALDNVLPSAQLMMDKAVVAGIQQAHAEQLANMRIQDLKVSLKPLHSVNNPILRKRKLLGTKPKDSVYIHDHENGAEDSNVALEKLRDVIAQCILPQAGENEDEKLNEVMQEAWKYNRECKLLRDTLQSFSWNGRGFTDKVDRLKLAEIVKQVIEEQTTSHESQ
On to B12, for which the “MBP Kinase Activity” value is given as “Strong”.
